Measured values reported in article PMC6372703, “A thermostable laccase from Thermus sp. 2.9 and its potential for delignification of Eucalyptus biomass” (AMB Express, 2019).

Tested on: CCn1c(=NN=c2sc3cc(S(=O)(=O)O)ccc3n2CC)sc2cc(S(=O)(=O)O)ccc21
Assay: purified protein
Conditions: 20 mM sodium acetate, pH 5, 60 °C, 1 mM CuSO4

With LAC_2.9 (Thermus sp. 2.9) the Km was 590 ± 80 µM, the kcat was 1 ± 0.04 s⁻¹ and the kcat/Km was 1700 ± 200 M⁻¹ s⁻¹.
